Test results published in publication PMC13397619.

B1: NLV2 TCR alpha chain (CDR3α only) (parent)
chain: AGPMKTSYDKVI

Variants of: B1
Test: T-Switch: Jurkat TCRβ−/− cells expressing a CDR3 saturation-mutagenesis library, stained with two peptide-HLA-A*02:01 tetramers (original and novel peptide) plus anti-CD3, FACS-sorted into four gates, gDNA sequenced
Settings: tetramers 1 µg/mL, 30 min on ice, SP, DP and SW gates expanded about 10 days between rounds ('two to three rounds of selection' in the Methods), unresolved parent, parent is a CDR3 fragment, scale: fold enrichment, numbering: sequential-on-construct, sequence starts at 1
[1] = with both tetramers (double-negative gate, binds neither): HLA-A*02:01 with … and with …, gate DN: OPPOSITE: higher = more of the variant in the gate that binds neither peptide = LESS binding (or no expression; inferred). Fold enrichment of the CDR3 variant in one FACS gate of a two-tetram
[2] = with both tetramers (double-positive gate): HLA-A*02:01 with … and with …, gate DP: higher = more of the variant in the gate that binds both peptides. Fold enrichment of the CDR3 variant in one FACS gate of a two-tetramer stain. SP/DP/SW gates were expanded and re-sorted bef

Variant | enrichment [1] | enrichment [2]
[…] (CDR3 as printed); S7T derived by comparing it with the table's wild-type CDR3 AGPMKTSYDKVI | 0.968 | 0
[…] (CDR3 as printed); Y8W derived by comparing it with the table's wild-type CDR3 AGPMKTSYDKVI | 1.01 | 0
[…] (CDR3 as printed); K10N derived by comparing it with the table's wild-type CDR3 AGPMKTSYDKVI | 1.16 | 0
[…] (CDR3 as printed); T6N derived by comparing it with the table's wild-type CDR3 AGPMKTSYDKVI | 0.879 | 0
[…] (CDR3 as printed); G2S derived by comparing it with the table's wild-type CDR3 AGPMKTSYDKVI | 1.02 | 0
[…] (CDR3 as printed); G2E derived by comparing it with the table's wild-type CDR3 AGPMKTSYDKVI | 0.844 | 0
[…] (CDR3 as printed); D9P derived by comparing it with the table's wild-type CDR3 AGPMKTSYDKVI | 1.22 | 0
[…] (CDR3 as printed); T6D derived by comparing it with the table's wild-type CDR3 AGPMKTSYDKVI | 1.18 | 0
[…] (CDR3 as printed); Y8G derived by comparing it with the table's wild-type CDR3 AGPMKTSYDKVI | 1.22 | 0
[…] (CDR3 as printed); V11P derived by comparing it with the table's wild-type CDR3 AGPMKTSYDKVI | 0.923 | 0
[…] (CDR3 as printed); M4R derived by comparing it with the table's wild-type CDR3 AGPMKTSYDKVI | 0.913 | 0
[…] (CDR3 as printed); T6W derived by comparing it with the table's wild-type CDR3 AGPMKTSYDKVI | 1.07 | 0
[…] (CDR3 as printed); A1S derived by comparing it with the table's wild-type CDR3 AGPMKTSYDKVI | 0.736 | 0
[…] (CDR3 as printed); P3A derived by comparing it with the table's wild-type CDR3 AGPMKTSYDKVI | 1.21 | 0
[…] (CDR3 as printed); K10D derived by comparing it with the table's wild-type CDR3 AGPMKTSYDKVI | 0.842 | 0
[…] (CDR3 as printed); D9I derived by comparing it with the table's wild-type CDR3 AGPMKTSYDKVI | 1.01 | 0
[…] (CDR3 as printed); Y8L derived by comparing it with the table's wild-type CDR3 AGPMKTSYDKVI | 1 | 0
[…] (CDR3 as printed); G2I derived by comparing it with the table's wild-type CDR3 AGPMKTSYDKVI | 1.1 | 0
[…] (CDR3 as printed); V11Q derived by comparing it with the table's wild-type CDR3 AGPMKTSYDKVI | 1.35 | 0

Variant | enrichment [1] | enrichment [2]
[…] (CDR3 as printed); I12P derived by comparing it with the table's wild-type CDR3 AGPMKTSYDKVI | 1.18 | 0
[…] (CDR3 as printed); T6S derived by comparing it with the table's wild-type CDR3 AGPMKTSYDKVI | 1.05 | 0
[…] (CDR3 as printed); K5A derived by comparing it with the table's wild-type CDR3 AGPMKTSYDKVI | 0.428 | 0
[…] (CDR3 as printed); P3H derived by comparing it with the table's wild-type CDR3 AGPMKTSYDKVI | 0.96 | 0
[…] (CDR3 as printed); V11K derived by comparing it with the table's wild-type CDR3 AGPMKTSYDKVI | 1.49 | 0
[…] (CDR3 as printed); A1K derived by comparing it with the table's wild-type CDR3 AGPMKTSYDKVI | 1 | 0
[…] (CDR3 as printed); A1L derived by comparing it with the table's wild-type CDR3 AGPMKTSYDKVI | 0.94 | 0
[…] (CDR3 as printed); D9Y derived by comparing it with the table's wild-type CDR3 AGPMKTSYDKVI | 1.09 | 0
[…] (CDR3 as printed); M4E derived by comparing it with the table's wild-type CDR3 AGPMKTSYDKVI | 0.637 | 0
[…] (CDR3 as printed); D9M derived by comparing it with the table's wild-type CDR3 AGPMKTSYDKVI | 0.931 | 0
[…] (CDR3 as printed); G2D derived by comparing it with the table's wild-type CDR3 AGPMKTSYDKVI | 1.02 | 0
[…] (CDR3 as printed); M4I derived by comparing it with the table's wild-type CDR3 AGPMKTSYDKVI | 0.318 | 0
[…] (CDR3 as printed); V11W derived by comparing it with the table's wild-type CDR3 AGPMKTSYDKVI | 0.939 | 0
[…] (CDR3 as printed); P3N derived by comparing it with the table's wild-type CDR3 AGPMKTSYDKVI | 1.07 | 0
[…] (CDR3 as printed); A1R derived by comparing it with the table's wild-type CDR3 AGPMKTSYDKVI | 0.924 | 0
[…] (CDR3 as printed); V11M derived by comparing it with the table's wild-type CDR3 AGPMKTSYDKVI | 1.2 | 0
[…] (CDR3 as printed); K10C derived by comparing it with the table's wild-type CDR3 AGPMKTSYDKVI | 1.06 | 0
[…] (CDR3 as printed); T6M derived by comparing it with the table's wild-type CDR3 AGPMKTSYDKVI | 1.45 | 0
[…] (CDR3 as printed); A1Q derived by comparing it with the table's wild-type CDR3 AGPMKTSYDKVI | 0.89 | 0

Variant | enrichment [1] | enrichment [2]
[…] (CDR3 as printed); S7G derived by comparing it with the table's wild-type CDR3 AGPMKTSYDKVI | 0.911 | 0
[…] (CDR3 as printed); K10H derived by comparing it with the table's wild-type CDR3 AGPMKTSYDKVI | 0.835 | 0
[…] (CDR3 as printed); K5H derived by comparing it with the table's wild-type CDR3 AGPMKTSYDKVI | 0.696 | 0
[…] (CDR3 as printed); K10Q derived by comparing it with the table's wild-type CDR3 AGPMKTSYDKVI | 0.706 | 0
[…] (CDR3 as printed); V11I derived by comparing it with the table's wild-type CDR3 AGPMKTSYDKVI | 0.74 | 0
[…] (CDR3 as printed); K5E derived by comparing it with the table's wild-type CDR3 AGPMKTSYDKVI | 0.392 | 0
[…] (CDR3 as printed); P3E derived by comparing it with the table's wild-type CDR3 AGPMKTSYDKVI | 1.15 | 0
[…] (CDR3 as printed); Y8M derived by comparing it with the table's wild-type CDR3 AGPMKTSYDKVI | 1.1 | 0
[…] (CDR3 as printed); P3L derived by comparing it with the table's wild-type CDR3 AGPMKTSYDKVI | 1.13 | 0
[…] (CDR3 as printed); I12E derived by comparing it with the table's wild-type CDR3 AGPMKTSYDKVI | 1.18 | 0
[…] (CDR3 as printed); V11C derived by comparing it with the table's wild-type CDR3 AGPMKTSYDKVI | 1.08 | 0
[…] (CDR3 as printed); Y8D derived by comparing it with the table's wild-type CDR3 AGPMKTSYDKVI | 0.393 | 40.5
[…] (CDR3 as printed); M4L derived by comparing it with the table's wild-type CDR3 AGPMKTSYDKVI | 0.995 | 0
[…] (CDR3 as printed); T6G derived by comparing it with the table's wild-type CDR3 AGPMKTSYDKVI | 1.02 | 0
[…] (CDR3 as printed); I12V derived by comparing it with the table's wild-type CDR3 AGPMKTSYDKVI | 0.739 | 0
[…] (CDR3 as printed); K10F derived by comparing it with the table's wild-type CDR3 AGPMKTSYDKVI | 1.13 | 0
[…] (CDR3 as printed); I12Y derived by comparing it with the table's wild-type CDR3 AGPMKTSYDKVI | 1.06 | 0
[…] (CDR3 as printed); T6I derived by comparing it with the table's wild-type CDR3 AGPMKTSYDKVI | 0.515 | 0
[…] (CDR3 as printed); S7Q derived by comparing it with the table's wild-type CDR3 AGPMKTSYDKVI | 0.986 | 0
